A short description of assay [1]: LTB-MEP fusion protein functional assay (GM1 ganglioside ELISA, anti-MEP detection). The assay is classed as binding. As to conditions: GM1 ganglioside coated plates, chicken anti-MEP antibodies. The method, then: LTB-MEP fusion protein expressed by the recombinant pQE30-LTB-MEP construct was tested for its ability to bind GM1 ganglioside and anti-MEP antibodies. LTB-MEP fusion protein was incubated in ELISA plates coated with GM1 ganglioside (which binds to native LTB) with chicken anti-MEP antibodies.
Only LTB-MEP molecules with functional LTB and MEP units can be detected by this assay. Boiled LTB-MEP protein losses its capability to bind to GM1 ganglioside and therefore could not be detected.
A BamHI-HindIII fragment encoding for MEP (SEQ ID NO: 1) was attached to a KpnI-HindIII fragment encoding for LTB (SEQ ID NO: 52) through a polynucleotide linker. The ligated product was cloned into pQE30 vector and transformed into E. Coli (JM109 strain). LTB-MEP fusion protein expressed in bacteria, was purified and further characterized by ELISA assay. Ganglioside GM1 coated plates were incubated at 37° C. in the presence of native or boiled LTB-MEP fusion protein, purified LTB and pQE30 DNA expression vector (without insert) molecules. […] LTB molecule is sensitive to temperature and heat treatment destroys its capability to bind to GM1 ganglioside. Since binding detection was performed using chicken anti-MEP antibodies only active LTB-MEP fusion protein could be detected.
On the technique in general: ELISA stands for enzyme-linked immunosorbent assay.

Another assay relates to DC. Nature of the assay: DC maturation in vitro (preliminary data). Type of assay: cell-based. From the text:
A non-toxic form of LT (NLT) was produced by the present inventors. […] Thus, NLT and LTB could be developed as a delivery system for the presentation of tumor antigens to the immune system.

B1: Purified LTB (protein)
chain: APQTITELCSEYRNTQIYTINDKILSYTESMAGKREMVIITFKSGETFQVEVPGSQHIDSQKKAIERMKDTLRITYLTETKIDKLCVWNNKTPNSIAAISMKN
With B1, the entries for the “OD 450 nm” value in assay [1] (treatment 37° C.) and in assay [1] (treatment Boiled) were 1.05 and 0.98, respectively. The DC maturation entry with DC was “induce DC maturation in vitro”.
